In patent publication US5635615, “High affinity HIV nucleocapsid nucleic acid ligands” (NeXstar Pharmaceuticals, Inc.):

Legend:
Conditions in all cases: tags: processed NC, 55 aa, from pBH10, gift of Agouron Pharmaceutical; label: 5'-32P
[1] = target: T1, HIV-1 nucleocapsid p7 (NC) (Human immunodeficiency virus type 1 …, UniProt P03347 P03347:378-432); assay: filter; 10 mM NaOAc pH 5.3, 0.1 mM ZnCl2, 5 mM MgCl2, 100 mM NaCl, 37 C
Procedure: Binding assays were done by adding 5 μl of HIV-1 p7 nucleocapsid protein, at the appropriate concentrations (i.e., ranging from 6×10^-10 to 5×10^-8), to 45 μl of binding buffer (10 mM NaOAc (pH 5.3), 2 mM 2-mercaptoethanol, 0.1 mM ZnCl_2, 5 mM MgCl_2, 100 mM NaCl) on ice, then adding 80,000 cpm of kinased RNA (<200 fmoles) in a volume of 3 to 4 μl. This mix was incubated at 37° C. for 20 minutes. The reactions were then passed over nitrocellulose filters, which were pre-equilibrated in the same buffer, and washed five times with one milliliter each time using a 50 mM Tris-Cl pH 7.5 solution. Filters were dried and counted in cocktail. The protein used in these experiments were frozen and thawed only once. Each binding curve consisted of seven points and each point is the average of duplicates.
The dissociation constants for 12 of the 14 RNA species were determined by nitrocellulose filter binding. These experiments were carried out in duplicates. All binding curves were done using γ-^32P labeled RNA in binding buffer containing 100 mM NaCl.

[2] = target: T1, HIV-1 nucleocapsid p7 (NC); assay: inhibition; about 50% inhibition of NC-stimulated annealing of con+/con- DNA, 10 nM NC
Procedure: (§1) This buffer was used and the concentration of each oligo was reduced keeping their action time constant to find an oligo concentration that would give less than 10% duplex formation under these conditions. The conditions in the reaction used for inhibition assay was as follows. 400 pM each DNA oligo (con+/−) was mixed with 10 nM nucleocapsid for 6 minutes at 37° C. in binding buffer containing 200 mM NaCl in a reaction volume of 30 µl. After this time, reactions were stopped by placing on ice and loaded on gel after 2 minutes. Gels were run at 250 volts for 3.5 hours. In reactions where random RNA was added as inhibitor, the concentrations range from 6500 nM to 9 nM. Where selected RNAs were used, the range was 720 nM to 0.11 nM.

[3] = target: T1, HIV-1 nucleocapsid p7 (NC); assay: inhibition; inhibition of NC-stimulated annealing of con+/con- DNA, 10 nM NC
Procedure: as §1

Binder	Kd [1]	IC50 [2]	Ki [3]
400-17 (ssRNA) RNA: GGGAGCUCAGAAUAAACGCUCAAGUUCUGAGAACUCUCCCCAUUCUAGUGUGCUUCGACAUGAGGCCCGGAUCCGGC	2 nM	~0.5 nM	–
400-23 (ssRNA) RNA: GGGAGCUCAGAAUAAACGCUCAACUGAGAACUCUCCCGCUCGCAUUAUUAACCUUCGACAUGAGGCCCGGAUCCGGC	6 nM	–	3 nM
